In doi:10.1101/2025.09.10.672744, “UDP-glucose Activation of a G-protein/Sucrose Synthase Signaling Supercomplex” (bioRxiv, 2025):

Key:
[1] = molecular target: T1, His-SUS4 (Arabidopsis, UniProt Q9LXL5 1-808); experiment: MST; sfGFP-RGS1(ΔC-tail) as the fluorescent target, His-SUS1 or His-SUS4 as ligands; NanoTemper Monolith NT.115; details: both partners purified
T1 construct: Gateway pDEST17 adds linker residues between the His tag and the protein; also called SUCROSE SYNTHASE 4; source: E. coli ArcticExpress RP, purified (Ni-NTA, Superdex 200 SEC); not shown: 6xHis, N-terminal, kept

[2] = molecular target: T2, His-SUS1 (Arabidopsis, UniProt P49040 1-808); experiment: as above; details: both partners purified
T2 construct: Gateway pDEST17 adds linker residues between the His tag and the protein; also called SUCROSE SYNTHASE 1; source: E. coli ArcticExpress RP, purified (Ni-NTA, Superdex 200 SEC); not shown: 6xHis, N-terminal, kept
T2 sequence (P49040 whole entry): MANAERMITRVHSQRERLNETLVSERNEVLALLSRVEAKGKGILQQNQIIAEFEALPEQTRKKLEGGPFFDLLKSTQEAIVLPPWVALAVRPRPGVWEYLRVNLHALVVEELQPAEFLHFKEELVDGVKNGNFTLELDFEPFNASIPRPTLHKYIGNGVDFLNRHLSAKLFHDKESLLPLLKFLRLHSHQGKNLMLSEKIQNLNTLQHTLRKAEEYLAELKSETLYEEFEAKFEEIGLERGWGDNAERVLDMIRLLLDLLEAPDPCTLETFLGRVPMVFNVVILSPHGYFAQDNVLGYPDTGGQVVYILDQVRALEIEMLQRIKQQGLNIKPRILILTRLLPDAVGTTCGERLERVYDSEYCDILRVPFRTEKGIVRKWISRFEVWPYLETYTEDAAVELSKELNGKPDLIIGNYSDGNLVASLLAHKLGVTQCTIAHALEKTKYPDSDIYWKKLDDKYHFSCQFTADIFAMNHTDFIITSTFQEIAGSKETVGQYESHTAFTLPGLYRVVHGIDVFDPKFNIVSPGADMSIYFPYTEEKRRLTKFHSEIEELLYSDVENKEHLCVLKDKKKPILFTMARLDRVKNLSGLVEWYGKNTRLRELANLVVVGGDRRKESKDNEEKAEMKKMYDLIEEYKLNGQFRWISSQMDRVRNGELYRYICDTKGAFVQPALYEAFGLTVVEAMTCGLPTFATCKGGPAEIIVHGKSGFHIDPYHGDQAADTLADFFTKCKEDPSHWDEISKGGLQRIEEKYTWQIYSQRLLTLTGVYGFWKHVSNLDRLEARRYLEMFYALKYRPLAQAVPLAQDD

T1 sequence (Q9LXL5 whole entry): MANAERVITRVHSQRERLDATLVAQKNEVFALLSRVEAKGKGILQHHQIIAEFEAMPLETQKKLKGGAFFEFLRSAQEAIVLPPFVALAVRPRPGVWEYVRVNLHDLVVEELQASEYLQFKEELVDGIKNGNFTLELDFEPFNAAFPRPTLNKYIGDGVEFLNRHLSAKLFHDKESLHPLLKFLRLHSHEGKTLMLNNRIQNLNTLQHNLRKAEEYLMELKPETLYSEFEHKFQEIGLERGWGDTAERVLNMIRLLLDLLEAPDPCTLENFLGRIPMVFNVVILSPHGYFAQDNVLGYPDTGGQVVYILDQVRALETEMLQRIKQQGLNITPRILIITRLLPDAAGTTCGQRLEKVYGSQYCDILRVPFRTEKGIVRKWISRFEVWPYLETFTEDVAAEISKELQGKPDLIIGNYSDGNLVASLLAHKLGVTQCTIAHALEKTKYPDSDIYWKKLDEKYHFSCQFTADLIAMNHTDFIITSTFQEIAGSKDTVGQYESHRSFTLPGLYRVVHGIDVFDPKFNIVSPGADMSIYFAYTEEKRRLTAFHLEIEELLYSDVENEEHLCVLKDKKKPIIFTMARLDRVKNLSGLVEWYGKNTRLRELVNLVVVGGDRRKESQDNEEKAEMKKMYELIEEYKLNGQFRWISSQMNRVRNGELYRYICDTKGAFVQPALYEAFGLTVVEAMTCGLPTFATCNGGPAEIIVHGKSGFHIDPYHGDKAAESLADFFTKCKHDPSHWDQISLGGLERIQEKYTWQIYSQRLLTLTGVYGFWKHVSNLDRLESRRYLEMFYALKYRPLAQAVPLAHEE

Kd [1]: 106 ± 3 nM
Kd [2]: 161 ± 9 nM
B1: HA–Flag–10xHis–sfGFP–TEV–Optimized–RGS1(ΔC-tail) (domain or fragment)
chain: MASGCALHGGCPSDYVAVAISVICFFVLLSRSVLPCLIHKAPRTNSSSFWIPVIQVISSFNLLFSIMMSVNLLRFRTKHWWRYCYLWAVWIEGPLGFGLLMSCRITQAFQLYFIFVKKRLPPVKSYIFLPLVLLPWIFGAAIIHATKPLNDKCHMGLQWTFPVAGLHALYVLALIAFTRAVRHVEFRFDELRDLWKGILVSATSIVIWVTAFVLNEIHEEISWLQVASRFVLLVTGGILVVVFFSISSNQPLLSQISLKKRQNFEFQRMGQALGIPDSGLLFRKEEFRPVDPNEPLDKLLLNKRFRHSFMEFADSCYAGETLHFFEEVYEHGKIPEDDSIRRIYMARHIMEKFIVAGAEMELNLSHKTRQEILTTQDLTHTDLFKNALNEVMQLIKMNLVRDYWSSIYFIKFKEEESCHEAMHKEGY
